Substitutions are numbered along the chain they refer to.

In test [1] the target is SARS-CoV-2 RBD (SARS-CoV-2). The test can be described thus: sVNT, cPass kit with SARS-CoV-2 RBD-HRP; HEK293 supernatant.
Test [2] addresses SARS-CoV-1 RBD (SARS-CoV). The test can be described thus: sVNT, cPass kit format with SARS-CoV-1 RBD-HRP; HEK293 supernatant.
For test [3], the target named is SARS-CoV-1 RBD (SARS-CoV). The test can be described thus: ELISA, 100 ng coated RBD, neat supernatant, anti-human IgG-HRP.
For test [4], the target named is SARS-CoV-2 RBD (SARS-CoV-2). The test is described as above.

B1: Antibody 9 (SS6V9-D11) (antibody, V domains shown)
VH: QVQLQESGPGLVKPSGTLSLTCAVSGGSISSNIWWSWVRQPPGKGLEWIGDIYHSGSTNYNPSLEGRVTISIDKSKNQFSLRLTSLTAADTAVYYCARAISQQYFDSSVLGYWGQGILVTVSS
VL: EIVMTQSPATLSVSPGERVTLSCRASQSVVTNLAWYQQKPGQAPRLLIYGASTRATGIPARFSGSGSGTEFTLTISSLQSEDFAIYHCQQYNNWPGYTFGQGTKVDIK
In test [1], B1 yielded a sVNT SARS-CoV-2 (% I) of 39.2%. In addition, the sVNT SARS-CoV-1 (% I) in test [2] turned out to be 45.2%. For the same molecule, in test [3], the Binding SARS-CoV-1 stood at 1.29. The same molecule yielded a Binding SARS-CoV-2 in test [4] of 1.81.

B2: Antibody 14 (SS6V14-F2) (antibody, V domains shown)
VH: QVQLQESGPGLVKPSETLSLTCTVSGGPISSYYWTWIRQPPGKGLEWIGYIYYSGSTNYSPSLKSRVTMSLETSKNQFSLKLTSVTAADTAVYYCARDPLAEGAASSGFDNWGQGTLVTVSS
VL: DIQMTQSPSSLSASVGDRVTITCRASQSISSYLNWYQQKPGKAPKLLIYAASALQSGVPSRFSGSGSGTHFSLTINGLQPEDFATYSCQQSYTTPRTFGPGTKVEIK
For the molecule B2, the sVNT SARS-CoV-2 (% I) in test [1] came out at 33.4%. This molecule registered a sVNT SARS-CoV-1 (% I) in test [2] of 18.1%. Besides, the Binding SARS-CoV-1 in test [3] turned out to be 1.06. In addition, the Binding SARS-CoV-2 in test [4] stood at 1.54.

B3: Antibody 8 (SS6V8-D3) (antibody, V domains shown)
VH: EVQLVESGGDLVQPGGSLRLSCSASGFTFSTYAMHWVRQAPGKGLDYVASIASDGGITTYADSVKGRFTISRDNSKNALYLQMSSLRVEDTAVYYCVKDSLTSVTTIFDCWGQGTLVTVSS
VL: DIQMTQSPSSLSASVGDSVTITCRASQNINSYLHWYQQKPGKAPKLLIYTASSLQSGVPSRFSASGSGTHFTLTISSLQPEDFATYYCQQSYTDPYTFGQGSKVEIK
B3: in test [1], the sVNT SARS-CoV-2 (% I) amounted to 33.1%. In test [2], the sVNT SARS-CoV-1 (% I) stood at 36.1%. Moreover, the Binding SARS-CoV-1 in test [3] was found to be 1.42. The molecule further displayed a Binding SARS-CoV-2 in test [4] of 1.94.

B4: Antibody 12 (SS6V12-E11) (antibody, V domains shown)
VH: EVQLVESGGGLVKPGGSLRLSCAASGFTFSTYNMNWVRQAPGKGLEWVSSISSSSSFMFYADSVKGRFTISRDNANNSLYLQMNSLRAEDTAVYYCARDYYDNSGYYYYGMDVWGQGTTVTVSS
VL: DIQMTQSPSSLSASVGDRVTITCRASQSIRTYLSWYQQKPGKAPELLIYAASNLQSGVPSRFSGSGSGTDFTLTISSLQPEDFATYYCLQTYSTPQITFGQGTRLEIE
B4 came in with a sVNT SARS-CoV-2 (% I) in test [1] of 45%. For the same molecule, in test [2], the sVNT SARS-CoV-1 (% I) worked out at 50.4%. For the same molecule, the Binding SARS-CoV-1 in test [3] worked out at 1.21. Moreover, the Binding SARS-CoV-2 in test [4] worked out at 1.45.

B5: Antibody 15 (SS6V15-F6) (antibody, V domains shown)
VH: EVQLVESGGGVVQPGRSLRLSCAASGFTFSSYAIHWVRQAPGKALEWVALISYDGRTKYYADSVKGRFTISRDNSKNTLYLQMNSLRAEDTAVYYCARLDIIITPPANDYWGQGTLVTVSS
VL: EIVLTQSPGTLSLSPGDRATVSCRASQIVSSNYLAWYQQKPGQVPRLLIYDASSRATGIPDRFSGSGSGTDFTLTISRLEPEDFAVYYCHQYGDSRRTFGQGTKVDIK
Turning to B5, the sVNT SARS-CoV-2 (% I) in test [1] was found to be 15.7%. Also, the sVNT SARS-CoV-1 (% I) in test [2] came to 17.5%. The molecule also displayed a Binding SARS-CoV-1 in test [3] of 0.831. In test [4], this molecule came in with a Binding SARS-CoV-2 of 0.674.

B6: Antibody 18 (SS6V18-E3) (antibody, V domains shown)
VH: EVQLVESGGGLVQPGGSLRLSCAASGFTFSSYAMHWVRQVPGKGLEYVSSITSNGGGTFYADSVKGRFTISRDNSKNTVYLQMGSLSTEDMALYYCAREGIQGWVTYFDYWGRGILVTVSS
VL: DIQMTQSPSSLSASIGDRVTITCRASQSISTNLNWYQQKPGKAPKLLIYAASSLPSGVPSRFSGSGSGTDFTLTISSLQPEDFANYLCQQTYTTPQYSFGQGTKVEIK
Molecule B6 had a sVNT SARS-CoV-2 (% I) in test [1] of 15.5%. For the same molecule, the sVNT SARS-CoV-1 (% I) in test [2] stood at 43.7%. In addition, the Binding SARS-CoV-1 in test [3] turned out to be 1.33. For the same molecule, the Binding SARS-CoV-2 in test [4] came out at 1.11.

B7: Antibody 1 (SS6V1-B5) (antibody, V domains shown)
VH: EVQLVESGGGLVQPGGSLRLSCAASGFILRNYEMQWVRQAPGKGLEWVSVIGNTGGTFYAGSVKGRFTISRENAKNSLYLQMNSLRAEDTALYYCARVTYTSSPLPFWFLDLWGRGTLVTVSS
VL: DIQMTQSPSSLSASVGDRVTITCRASQSIGNYLNWYQQKSGKAPKILIYAASSLQSGVPSRFSGSGSGTDFTLTISSLQPEDFATYYCQQTYRTPPEDSFGQGTKVEIK
For B7, the sVNT SARS-CoV-2 (% I) in test [1] came out at 46.3%. This molecule also registered a sVNT SARS-CoV-1 (% I) in test [2] of 52.1%. The same molecule yielded a Binding SARS-CoV-1 in test [3] of 1.35. The same molecule displayed a Binding SARS-CoV-2 in test [4] of 1.73.

B8: Antibody 2 (SS6V2-G1) (antibody, V domains shown)
VH: EVQLVESGGGLVQPGGSLRLSCAASGFTVSSNYMSWVRQAPGKGLEWVSVIYSGGSTFYADSVKGRFTISRDNSKNTLYLQMNSLRAEDTAVYYCARELRHYFDYWGQGTLVTVSS
VL: DIQLTQSPSFLSASVGDRVTITCRASQGISSYLAWYQQKPGKAPKLLIYAASTLQSGVPSRFSGSGSGTEFTLTISSLQPEDFATYYCQQLNSYPPYSFGQGTKVEIK
B8 gave a sVNT SARS-CoV-2 (% I) in test [1] of 20.2%. In addition, the sVNT SARS-CoV-1 (% I) in test [2] is 1.35%. Further, in test [3], the Binding SARS-CoV-1 was 0.008. In test [4], this molecule displayed a Binding SARS-CoV-2 of 0.947.

B9: Antibody 19 (SS6V19-F4) (antibody, V domains shown)
VH: EVQLVQSGSELKKPGASVKVSCKVSGYTFTDYNMNWVRQAPGQGLEWMGWINTNTGIPTYAQGFTGRFVFSLDTSVSTAYLQISSLKAEDTAIYYCARDGGWQLPYWYFDLWGRGTLVTVSS
VL: EIVMTQSPATLSVSPGERVTLSCRASYSFSSSLAWYQQKPGQAPRLLIYGTSTRATGVPVRFSGSGSGTEFTLTISSLQSEDLAVYYCQQYYSWPLTFGQGTKVDIK
B9: the sVNT SARS-CoV-2 (% I) in test [1] was determined as 38.8%. In addition, in test [2], the sVNT SARS-CoV-1 (% I) is 61.2%. Moreover, the Binding SARS-CoV-1 in test [3] stood at 1.15. The same molecule gave a Binding SARS-CoV-2 in test [4] of 0.641.

B10: Antibody 6 (SS6V6-C4) (antibody, V domains shown)
VH: EVQLVESGGGLVQPGGSLRLSCSASGFTFNTYAMHWVRQAPGKGPEYVSGISSNGGITDYADSVKGRFTISRDNSKNTLYLQMSSLRPEDTAVYYCVKDSLATVVTLLSYWGQGTLVTVSS
VL: DIQMTQSPSSLSASVGDRVTITCRASQTISSYLNWFQQKPGKAPKLLIYAASSLQSGVPSRFSGSGSGTDFTLTISSLQPEDFAIYYCQQSYSTPGTFGQGTKVEIK
As for B10, the sVNT SARS-CoV-2 (% I) in test [1] turned out to be 31.7%. Further, the sVNT SARS-CoV-1 (% I) in test [2] was determined as 30.5%. Also, in test [3], the Binding SARS-CoV-1 stood at 1.29. Further, the Binding SARS-CoV-2 in test [4] turned out to be 1.92.

B11: Antibody 5 (SS6V5-C3) (antibody, V domains shown)
VH: EVQLVQSGAEVRKPGESLKISCKTSGYTFTHYWIGWVRQLPGKGLEWMGIIYPDDSDTKYSPSFQGQITISADKSISTAYLQWNSLKASDTAMYFCATADIVVGSNFFDHWGQGTLVTVSS
VL: DIQMTQSPSTLSASVGDRVTITCRASQSISTWLAWYQQKPGKPPKVLIYKASILESGVSSRFSGSGSGTEFTLTISSLQPDDFATYYCQHYNSYIKTFGQGTKVEIK
B11: in test [1], the sVNT SARS-CoV-2 (% I) stood at 32.3%. In test [2], the sVNT SARS-CoV-1 (% I) worked out at 11.7%. The molecule further came in with a Binding SARS-CoV-1 in test [3] of 1.16. This molecule had a Binding SARS-CoV-2 in test [4] of 1.68.

B12: Antibody 7 (SS6V7-C5) (antibody, V domains shown)
VH: EVQLVQSGAEVKKPGESLKISCKGSENIFSGYWIGWVRQMPGKGLEWMGIIYPDDSDTRYNPSFQGQVTISADQSISTAYLQWSRLKASDTAMYYCARHLGGGSSWPIDYWGQGTLVTVSS
VL: DIQMTQSPSSLSASVGDRVTITCRANQGISNYLAWFQQKPGKAPKSLIYAASSLQSGVPSKFSGNRSGTDFTLTISSLQPEDFATYYCQQYSSYPFTFGGGTKVEIK
In turn, B12 had a sVNT SARS-CoV-2 (% I) in test [1] of 14.9%. This molecule also had a sVNT SARS-CoV-1 (% I) in test [2] of 20.8%. This molecule also came in with a Binding SARS-CoV-1 in test [3] of 0.972. This molecule yielded a Binding SARS-CoV-2 in test [4] of 1.16.

B13: Antibody 10 (SS6V10-E1) (antibody, V domains shown)
VH: EVQLVQSGAEVKKPGESLKISCQGSEDSFTGYWIGWVRQLPGKGLEWMGFIYPDDGDTRYSPAFQGLVTFSADKSITTAYLQWSSLKASDTAIYFCARHLGGGSSWPIDSWGQGTQVTVSS
VL: B12 VL with N26S, S30R, N65S, R66G, S67Y, S76N, S92N, S93N, Y94H
In test [1], B13 came in with a sVNT SARS-CoV-2 (% I) of 22.7%. In addition, the sVNT SARS-CoV-1 (% I) in test [2] came to 15.4%. The molecule also displayed a Binding SARS-CoV-1 in test [3] of 1.1. Further, the Binding SARS-CoV-2 in test [4] amounted to 1.31.

Values taken from patent US20240254204A1.
